# Laboratory results from paper PMC5295395, “Inhibition of PlexA1-mediated brain tumor growth and tumor-associated angiogenesis using a transmembrane domain targeting peptide” (Oncotarget, 2016).
# Assays:
# [1] = system: PlexA1; assay: morpholino-based PlexA1 knockdown in zebrafish, intersegmental vessels; assay type: in vivo; settings: tg(kdrl:eGFP) zebrafish, 28 hours post fertilization, vs no injection or mismatch morpholino
# Text: We observed PlexA1 positive blood vessels in the tissue array of GBM samples (Figure 5A). […] To address this possibility we first used a transgenic zebra-fish model tg(kdrl:eGFP) highlighting the endothelial cells. This allowed us to assess the angiogenic activities in vivo by analyzing formation of intersegmental vessels (ISVs) after morpholino-based knockdown of the target. […] (Scale bar: 40 μm). […] Representative images of control, Plexin-A1 mismatch and […]1 knockdown embryos (plxna1MO) are shown 28 hours post fertilization (28hpf). […] (E) Live-monitoring of VEGF-induced HUVEC cell migration assay using the […] system (transwell assay). (F) Microphotographs illustrating the expression of PlexA1 in blood vessels of the chick chorioallontoic membrane (upper left picture). Microphotographs (middle and lower left pictures) and camera lucida drawing (middle and lower right pictures) showing representative fields of observation after 24 h incubation with VEGF (100 ng/ml, +vehicle) or […]1 (10^-7 M). The number of VEGF-induced new blood vessels is shown in the graph. For knockdown of PlexA1 in the zebra fish we used morpholino oligonucleotides described by. MO ([NT]) was injected at the one-cell stage. Animals ([…] incubated at 28.5°C for 5 hours before treatment with 1-phenyl-2-thiourea (PTU) to prevent pigment formation. […]
# [2] = biological target: Plexin-A1 (human (endogenous in U373MG and U118MG)) (UniProt Q9UIW2); assay: proximity ligation; proximity ligation assay on tumor tissue sections of U118MG-Luc xenografts; mice treated with MTP-PlexA1 against control mice
# UniProt Q9UIW2, sequence (Q9UIW2 27-1896): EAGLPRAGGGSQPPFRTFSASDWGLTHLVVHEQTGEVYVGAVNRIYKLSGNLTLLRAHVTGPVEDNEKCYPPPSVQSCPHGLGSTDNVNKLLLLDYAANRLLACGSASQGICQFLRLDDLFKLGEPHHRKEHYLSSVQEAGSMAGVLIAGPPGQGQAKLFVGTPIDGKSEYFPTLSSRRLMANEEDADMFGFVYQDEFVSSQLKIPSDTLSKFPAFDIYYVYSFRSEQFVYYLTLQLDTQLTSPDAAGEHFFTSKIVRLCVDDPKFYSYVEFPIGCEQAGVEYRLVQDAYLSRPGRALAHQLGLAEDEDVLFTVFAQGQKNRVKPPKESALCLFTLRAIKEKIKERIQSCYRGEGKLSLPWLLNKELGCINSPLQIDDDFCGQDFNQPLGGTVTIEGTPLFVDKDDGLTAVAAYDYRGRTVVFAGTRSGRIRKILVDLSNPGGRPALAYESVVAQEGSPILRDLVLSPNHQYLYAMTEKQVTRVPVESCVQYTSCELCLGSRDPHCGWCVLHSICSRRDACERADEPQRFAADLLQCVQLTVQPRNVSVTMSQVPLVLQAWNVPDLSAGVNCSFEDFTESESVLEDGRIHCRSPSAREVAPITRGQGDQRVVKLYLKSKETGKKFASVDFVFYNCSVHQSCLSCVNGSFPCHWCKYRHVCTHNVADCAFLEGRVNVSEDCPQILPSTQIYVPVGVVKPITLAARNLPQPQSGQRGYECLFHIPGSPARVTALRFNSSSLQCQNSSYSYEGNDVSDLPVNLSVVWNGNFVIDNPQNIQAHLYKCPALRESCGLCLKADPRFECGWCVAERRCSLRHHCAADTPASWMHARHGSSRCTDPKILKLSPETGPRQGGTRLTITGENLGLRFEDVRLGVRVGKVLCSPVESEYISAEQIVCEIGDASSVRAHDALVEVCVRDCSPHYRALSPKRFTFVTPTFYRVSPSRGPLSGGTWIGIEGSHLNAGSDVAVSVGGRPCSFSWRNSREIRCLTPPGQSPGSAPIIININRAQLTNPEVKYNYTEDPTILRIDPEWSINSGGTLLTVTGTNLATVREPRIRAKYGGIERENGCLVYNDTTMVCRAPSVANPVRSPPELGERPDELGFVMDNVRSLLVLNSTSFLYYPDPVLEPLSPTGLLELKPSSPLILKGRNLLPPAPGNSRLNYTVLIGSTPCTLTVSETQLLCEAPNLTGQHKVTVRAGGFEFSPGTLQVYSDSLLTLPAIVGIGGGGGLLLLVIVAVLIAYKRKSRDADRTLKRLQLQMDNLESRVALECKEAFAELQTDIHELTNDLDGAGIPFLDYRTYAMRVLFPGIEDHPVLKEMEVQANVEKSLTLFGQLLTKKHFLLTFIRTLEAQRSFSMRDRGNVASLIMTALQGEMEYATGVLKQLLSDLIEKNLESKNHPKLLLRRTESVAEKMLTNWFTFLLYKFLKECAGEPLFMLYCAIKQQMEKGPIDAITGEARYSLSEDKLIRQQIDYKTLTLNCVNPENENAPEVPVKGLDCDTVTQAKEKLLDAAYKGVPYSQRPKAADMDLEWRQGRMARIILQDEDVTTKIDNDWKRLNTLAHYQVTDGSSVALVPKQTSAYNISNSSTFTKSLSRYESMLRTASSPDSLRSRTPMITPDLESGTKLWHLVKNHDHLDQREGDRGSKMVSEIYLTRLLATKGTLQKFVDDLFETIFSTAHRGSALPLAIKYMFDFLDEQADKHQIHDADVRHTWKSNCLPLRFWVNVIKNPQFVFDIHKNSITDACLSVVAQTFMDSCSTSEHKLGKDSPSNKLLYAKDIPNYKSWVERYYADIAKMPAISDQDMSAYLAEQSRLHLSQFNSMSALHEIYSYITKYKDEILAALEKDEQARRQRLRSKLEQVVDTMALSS
# [3] = biological target: Plexin-A1 (human (endogenous in U373MG and U118MG)) (UniProt Q9UIW2); assay: proximity ligation; in situ proximity ligation assay (Duo-link) on U373MG cells; MTP-PlexA1 (10^-7 M) added, NRP1/PlexA1 complexes counted against vehicle
# [4] = biological target: Plexin-A1 (human (endogenous in U373MG and U118MG)) (UniProt Q9UIW2); assay: co-IP; immunoprecipitation of PlexA1 from U373MG cells stimulated with Sema3A (100 ng/ml) or VEGF (100 ng/ml) with MTP-PlexA1 (10^-7 M); amount of co-precipitated NRP1 and PlexA4 against no peptide
# [5] = system: NRP1 or PlexA1; settings: ref Arpel et al., 2014, Cell Reports; cited from earlier work
# Text: Such mutations have been previously shown to be sufficient to lose activity of NRP1 antagonist membrane domain targeting peptide (Roth et al., 2008 Mol Biol Cell).
# [6] = system: NRP1/PlexA1 complexes; assay: in situ proximity ligation assay (Duo-link), NRP1/PlexA1 complexes in U373MG cells; assay type: cell-based, human; settings: specificity control, MTP-Neu at 10–6 M
# Procedure: “Zip sequence” is the positive control of dimerization and “Empty” is the negative control of this bacterial system. (C, D) SPR assay (Biacore) to quantify MTP-PlexA1 interactions with PLexA1, NRP1 and VEGFR2 TMDs. (E) Proximity ligation assay showing that MTP-PlexA1 (10^−7 M) decreases the number of PLexA1-NRP1 interactions (green dots) in U373MG cells (scale bar = 20 μm).
# Additional specificity controls were performed using a mutated version of MTP-PlexA1 (in which 3 glycines of the GxxxGxxxG motif were replaced by 3 valines or MTP-Neu, an anti-breast cancer peptide known to not interact with PlexA1) as described in Supplementary Figure S2. […] Similar results were obtained when cells were exposed to VEGF (39.4% NRP1 and 35.4% PlexA4, Figure 4B).
# Supplementary Figure S2: Specificity controls were performed using a mutated version of MTP-PlexA1 […]
# LVIVAVLIAYKRK). Such mutations have been previously shown to be sufficient to lose activity of NRP1 antagonist membrane domain targeting peptide (Roth et al., 2008 Mol Biol Cell). We also used MTP-Neu, a transmembrane domain targeting peptide known to […]
# M, a concentration previously shown to produce maximal antagonist activity of the peptide. Additionally, we also repeated the in vitro angiogenic assay on matrigel using HUVEC cells. […]
# to MTP-PlexA1. These experiments confirmed the specificity of MTP-PlexA1.
# (1 picture or pasted object on this page, not shown here)
substance,measurement,setting,value
"5′-GCCACATATCTGCACTGGTCCTTGA-3′ (all phosphorodiamidate morpholino (PMO)) [morpholino sequence against PlexA1, morpholino oligonucleotide for knockdown of PlexA1 in the zebra fish]",abnormal angiogenic sprouts in intersegmental vessels,[1],significant number of abnormal angiogenic sprouts
"MTP-PlexA1, synthetic transmembrane peptide mimicking the TMD of PlexA1","percent change of PlexA1-NRP1 interactions (proximity ligation, tumor sections)",[2],-48.5%
same,"percent reduction of NRP1/PlexA1 complexes (proximity ligation, U373MG)",[3],29.4%
same,percent reduction of NRP1 co-immunoprecipitated with PlexA1 (VEGF),[4],39.4%
same,percent reduction of PlexA4 co-immunoprecipitated with PlexA1 (VEGF),[4],35.4%
"TFIIATVEGVLLFLILVVVVGILIKRR [MTP-Neu, reference compound]",interaction with NRP1 or PlexA1,[5],not interact with NRP1 or PlexA1
same,disruption of NRP1/PlexA1 dimers,[6],unrelated MTP-Neu peptide
